Entries after “also recorded” stand apart in the source; their conditions may differ. rhodamine = not defined here; BODIPY = not defined here
Assays:
[1] = tested on: untagged GFP/EGFP and mCherry; test: Fluorescence microscopy, cells expressing untagged fluorescent proteins; type: cell-based, human
Experimental: (§1) Fluorescence microscopy was used to confirm that the VIP Y/Z tag set enabled selective fluorescent labeling of proteins (FIGS. 3A and 3B). CoilZ was expressed by fusion to a cell-surface localized variant of GFP (CoilZ-GFP; pDisplay vector). […] Labeling was rapid (<30 min), target-specific, and live-cell compatible. Homodimerization between a CoilZ probe peptide and CoilZ-GFP was not observed. Cells expressing untagged GFP were not labeled with the CoilY probe peptide. CoilY was also expressed fused to the cell surface localized GFP and visualized using a CoilZ-AF647 probe peptide (FIG. 3B). No homodimerization of CoilY was observed, and the labeling was specific.
(§2) It was next confirmed that the VIP Y/Z tag set could be used in two-target imaging in fixed cells (FIGS. 5B and 13). A combination of cell lines singly-transfected with mCherry, GFP, CoilY-mCherry, or CoilZ-GFP was used, as illustrated in FIG. 9. […] Then we labeled two tagged FPs in one sample using a mixed population of cells expressing either CoilY-mCherry or CoilZ-GFP.
(§3) The disclosed methods were tested in transfected human osteosarcoma cells (U-2 OS). A pDisplay vector was used to target CoilZ-EGFP and untagged EGFP to the cell surface. This construct includes a C-terminal fusion to the transmembrane domain of the platelet derived growth factor receptor. As expected, both CoilZ-EGFP and untagged EGFP localized to the cell surface, and green fluorescence was observed within 24 h of transfection. Then the cells were blocked with 6% BSA and 10% FBS for 30 minutes at 37° C. and then contacted with an AF647-conjugated CoilY probe (CoilY-AF647), 30 min at 4° C. Cells were fixed before imaging by confocal fluorescence microscopy. The probe peptides are membrane impermeant; only cell-surface EGFP was accessible to CoilY-AF647 for labeling. Colocalization of green fluorescent CoilZ-EGFP with CoilY-AF647 was observed.
The CoilY/CoilZ tag set is bidirectional—either CoilZ or CoilY can serve as the probe peptide. CoilY-EGFP was expressed on the surface of U2OS cells and labeled with CoilZ-AF647. […]

untagged TfR1 = target: T1, untagged TfR1 (Homo sapiens, UniProt P02786); test: CoilR probe labeling of CHO TRVb cells expressing untagged TfR1; type: cell-based; details: labeled at 4° C.
T1 construct: expressed in transfected cells; host or cells: CHO TRVb

untagged EGFP-TM = test: Flow cytometry of probe labeling, live U-2 OS cells expressing untagged EGFP-TM; type: cell-based, human; details: 500 nM probe
Experimental: The in vitro results were translated to living cells. Flow cytometry was used to evaluate protein labeling in live human osteosarcoma (U-2 OS) cells expressing CoilZ-EGFP-TM, CoilY-EGFP-TM, or untagged EGFP-TM (FIG. 11). Cells were treated with 500 nM AF647-conjugated probe peptide before analysis, and we gated for EGFP-expressing cells. […] Non-specific labeling of untagged EGFP-TM and homodimerization with CoilY-EGFP-TM were minimal for cells exposed to CoilY-AF647. Cells expressing CoilY-EGFP-TM were labeled with CoilZ-AF647, but with only a 4-fold enhancement.
Protein labeling was assessed as a function of CoilY-AF647 concentration (FIG. 25). Live cells expressing CoilZ-EGFP-TM or untagged EGFP-TM were treated with a range of CoilY-AF647 concentrations (50 nM to 1000 nM for 30 min at room temperature). […] Cells had 21- to 44-fold higher median fluorescence compared to cells expressing untagged protein. Treatment with 300 nM AF647-CoilY gave optimal labeling, with 98% of cells labeled and a 35-fold increase in AF647 fluorescence. Treatment with an excess of probe peptide (i.e., 1000 nM) enhanced the AF647 signal, but at the cost of a small increase in non-specific labeling.

CoilZ-EGFP [2] = test: Fluorescence microscopy labeling of cell-surface CoilZ-GFP (CoilZ-EGFP); type: cell-based, human; details: fluorescence microscopy
Experimental: as §1, §2, §3
(§4) The CoilY/CoilZ tag set is also compatible with live-cell imaging. CoilZ-EGFP was contacted with CoilY-AF647 in live U2OS cells. […] Homodimerization was not observed for CoilY-EGFP incubated with CoilY-AF647. Non-specific labeling of untagged GFP was not observed (FIG. 26). Cells internalize labeled targets over time. CoilZ-GFP and CoilY-AF647 co-localization was observed on the surface and in endocytic vesicles due to rapid internalization, and AF647 signal accumulated inside cells during a 40 min. long incubation at room temperature (FIG. 12).
The VIPY/Z tag set can be used to label multiple protein targets simultaneously. Cells expressing CoilY-mCherry were combined with those expressing CoilZ-EGFP-pDisplay (FIG. 9). This mixed cell population, as well as unmixed CoilZ-GFP, CoilY-mCherry, and untagged controls, were plated for imaging. […] Fluorescence was detected by confocal fluorescence imaging. […]

CoilY-EGFP = test: Fluorescence microscopy labeling of cell-surface CoilY-GFP (CoilY-EGFP); type: cell-based, human
Experimental: as §1
The CoilY/CoilZ tag set is bidirectional—either CoilZ or CoilY can serve as the probe peptide. CoilY-EGFP was expressed on the surface of U2OS cells and labeled with CoilZ-AF647. Protein labeling was rapid (<30 min) and specific; non-specific labeling of untagged EGFP was not observed. Homodimerization was not observed for either CoilZ-AF647 with CoilZ-EGFP or CoilY-AF647 with CoilY-EGFP (FIG. 3B).
as §4

[3] = target: coiled-coil heterodimer pairs; details: heterodimer pair, Table 2; cited from earlier work
CoilZ-EGFP [4] = test: SDS-PAGE/PVDF membrane labeling of transfected HEK293FT lysates, CoilZ-EGFP; type: binding; details: cell lysates, SDS-PAGE, PVDF membrane
Experimental: The CoilY and CoilZ pair could be used to label two protein targets simultaneously. Transfected HEK293FT cell lysates from cells expressing mCherry, CoilY-mCherry, EGFP, or CoilZ-EGFP were resolved by SDS-PAGE and transferred to a PVDF membrane. The membrane was incubated sequentially with CoilZ-fluorescein and CoilY-rhodamine before imaging. GFP and mCherry fluorescence was not preserved due to SDS-PAGE protein denaturation.
(§5) A protein gel-based assay was optimized for analyzing VIP tags in vitro. Cell lysates were made from cells transfected with mCherry, CoilY-mCherry, GFP, or CoilZ-GFP, resolved by SDS-PAGE, and transferred to a membrane. GFP and mCherry fluorescence were not preserved in this experiment. The membrane was then contacted with CoilZ-fluorescein and CoilY-rhodamine before imaging. […] The probe peptides were specific for each tagged protein, and this single pair enabled specific and selective protein tagging of two distinct targets. In addition both the VIP E/R and VIP Y/Z tag sets could be used concurrently to label two recombinant proteins (DHFR and mCherry) without crosstalk (FIG. 23).

TfR1-MiniE = test: miniVIPER versus VIPER labeling of TfR1 in CHO TRVb cells; type: cell-based; details: Tf-AF488 and full length CoilR-Cy5
Experimental: FIG. 24 A and B are fluorescent micrographs comparing VIP E/R labeling with miniVIPER (MiniE and MiniR) labeling of TfR1. […] After labeling cells were imaged over time during a 30 min incubation at 37° C. Cells were imaged as confocal slices at 63× magnification. Transferrin-AF488 was false-colored green, CoilR-Cy5 was false-colored magenta, and nuclei were stained with Hoechst and false-colored blue. Individual channels are shown in FIG. 24B (blue, green, magenta) for the 5 minute timepoint. A Pearson's correlation analysis was used to compare fluorescence co-localization of CoilR-Cy5 with Transferrin-AF488. The p values are reported on the image and indicate that TfR1-miniE had better co-localization between Tf and CoilR labeling.
VIP E/R was edited by removing a heptad repeat, and changing key residues in the sequence to maximize affinity, improve dimer interface and create a smaller tag pair with more favorable charge balance for imaging in cells. MiniE (SEQ ID NO:10) and MiniR (SEQ ID NO:9) were created. TfR1 was tagged at the C-terminus with MiniE.

[5] = tested on: untagged mCherry and DHFR; test: SDS-PAGE/PVDF membrane labeling, untagged proteins; type: binding; details: lysates and purified proteins, PVDF membrane
Experimental: Crude lysates (lys.) and purified proteins (serial dilutions) were resolved by SDS-PAGE. Lysates were prepared from HERK 293FT cells transfected with mCherry, CoilY-mCherry, DHFR, and CoilE-DHFR. The protein gel was transferred to a PVDF membrane and then incubated with CoilZ-Fluorescein and CoilR-rhodamine. After washing, the membrane was imaged to detect VIPER labeling of DHFR (red) and VIP Y/Z labeling of mCherry (green). Untagged proteins were not labeled by either CoilR-rhodamine or CoilZ-fluorescein.
as §5

T1 sequence (P02786 whole entry): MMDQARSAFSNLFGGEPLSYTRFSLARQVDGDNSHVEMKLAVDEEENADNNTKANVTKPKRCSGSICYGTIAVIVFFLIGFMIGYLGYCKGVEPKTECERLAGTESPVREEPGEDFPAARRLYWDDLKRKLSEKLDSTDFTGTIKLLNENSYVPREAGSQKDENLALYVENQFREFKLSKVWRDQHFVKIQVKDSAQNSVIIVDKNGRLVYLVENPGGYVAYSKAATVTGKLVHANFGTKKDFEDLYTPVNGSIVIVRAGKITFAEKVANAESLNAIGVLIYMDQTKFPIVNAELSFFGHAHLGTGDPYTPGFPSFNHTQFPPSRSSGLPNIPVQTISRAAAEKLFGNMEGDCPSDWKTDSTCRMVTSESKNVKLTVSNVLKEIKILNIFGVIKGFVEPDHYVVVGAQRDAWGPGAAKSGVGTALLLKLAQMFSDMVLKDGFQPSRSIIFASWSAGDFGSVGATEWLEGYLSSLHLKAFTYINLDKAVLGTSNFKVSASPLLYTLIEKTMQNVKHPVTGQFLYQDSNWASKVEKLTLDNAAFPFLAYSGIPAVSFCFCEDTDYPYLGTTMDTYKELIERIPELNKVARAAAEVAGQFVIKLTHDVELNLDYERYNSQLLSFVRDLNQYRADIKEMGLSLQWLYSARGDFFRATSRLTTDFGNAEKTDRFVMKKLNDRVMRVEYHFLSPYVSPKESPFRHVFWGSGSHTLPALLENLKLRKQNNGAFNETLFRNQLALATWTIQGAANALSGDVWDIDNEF

B1: CoilY probe peptide: CoilY with linker, reactive cysteine and His6 tag, SEQ ID NO: 13 (peptide)
chain: MGSSNTVKELKNYIQELEERNAELKNLKEHLKFAKAELEFELAAHKFEGGGAAACLGKLAAALEHHHHHH
- non-specific labeling of untagged fluorescent proteins [1]: not labeled

B2: CoilR-BODIPY: CoilR probe peptide conjugated to BODIPY (conjugate)
peptide: MGGSLEIRAAFLRQRNTALRTEVAELEQEVQRLENEVSQYETRYGPLGGGAAALGC(BODIPY)LAAALEHHHHHH
modifications: reading uncertain
- labeling of cells expressing untagged TfR1 (untagged TfR1): showed now labeling

B3: CoilZ-AF647: CoilZ probe peptide conjugated to AF647 (conjugate)
peptide: MGSSQKVAQLKNRVAYKLKENAKLENIVARLENDNANLEKDIANLEKDIANLERDVARGGGAAACLGKLAAALEHHHHHH
- non-specific labeling of untagged EGFP-TM (untagged EGFP-TM): slightly higher
- homodimerization / cross-reactivity of CoilZ probe with CoilZ-GFP/EGFP (CoilZ-EGFP [2]): not observed
- labeling time (rapid) (CoilY-EGFP; CoilY-EGFP on surface of U2OS cells): < 30 min
- labeling of CoilY-GFP/EGFP (specificity) (CoilY-EGFP; fluorescence microscopy): specific
- non-specific labeling of untagged fluorescent proteins [1]: not observed

B4: CoilZ probe peptide: CoilZ with linker, reactive cysteine and His6 tag, SEQ ID NO: 14 (peptide)
chain: MGSSQKVAQLKNRVAYKLKENAKLENIVARLENDNANLEKDIANLEKDIANLERDVARGGGAAACLGKLAAALEHHHHHH
- homodimerization / cross-reactivity of CoilZ probe with CoilZ-GFP/EGFP (CoilZ-EGFP [2]): not observed

B5: VIP 3/4: heterodimeric tag pair of Coil3 and Coil4 (peptide)
chain 1: NEVTTLENDAAFIENENAYLEKEIARLRKEKAALRNRLAHKK
chain 2: QKVAELKNRVAVKLNRNEQLKNKVEELKNRNAYLKNELATLENEVARLENDVAE
- Kd [3]: < 30 nM

B6: CoilY-rhodamine: red fluorescent CoilY probe peptide, maleimide conjugate (conjugate)
peptide: MGSSNTVKELKNYIQELEERNAELKNLKEHLKFAKAELEFELAAHKFEGGGAAAC(rhodamine)LGKLAAALEHHHHHH
modifications: reading uncertain
notes: red fluorescent CoilY probe peptide, maleimide conjugate
- probe peptide binding to CoilZ-EGFP on membrane (CoilZ-EGFP [4]): specific coiled-coil heterodimer formation could be detected; also recorded: Probe peptide binding was detected

B7: VIP 1/2: heterodimeric tag pair of Coil1 and Coil2 (peptide)
chain 1: NLVAQLENEVASLENENETLKKKNLHKKDLIAYLEKEIANLRKKIEE
chain 2: ARNAYLRKKIARLKKDNLQLERDEQNLEKIIANLRDEIARLENEVASHEQ
- Kd [3]: < 10 nM

B8: miniVIPER: shorter, better charge balanced VIP E/R pair of MiniE and MiniR (peptide)
chain 1: LEIRVAFLRQRNTALRTEVAELEQEVQRLENRYGPL
chain 2: LEIEAAFLERENTALETRVAELRQRVQRLRNEYGPL
- Tf-AF488 signal compared to VIPER (TfR1-MiniE): brighter Tf-A488 signal
- colocalization between Tf-AF488 and CoilR-Cy5 compared to VIPER (TfR1-MiniE): improved colocalization

B9: CoilR-rhodamine: CoilR probe peptide conjugated to rhodamine (conjugate)
peptide: MGGSLEIRAAFLRQRNTALRTEVAELEQEVQRLENEVSQYETRYGPLGGGAAALGC(rhodamine)LAAALEHHHHHH
modifications: reading uncertain
- labeling of untagged proteins on membrane [5]: not labeled

— patent US11360100B2, “Methods and compositions useful in detecting proteins” (OREGON HEALTH & SCIENCE UNIVERSITY, priority 2016, dated 2022)
